B1: ILRWRPKNSVGRWK (peptide)
peptide: ILRWRPKNSVGRWK
B2: peptide 1 (QPSHISKYILRWRPKNSVGRWKEAT) (peptide)
peptide: QPSHISKYILRWRPKNSVGRWKEAT
notes: Synthetic peptide; also called FN634-658
B3: peptide 2 (QLISIQQYGHQEVTRFDFTTTSTST) (peptide)
peptide: QLISIQQYGHQEVTRFDFTTTSTST
notes: Synthetic peptide
B4: EGF (ligand, UniProt P01133 971-1023, looked up)
chain: NSDSECPLSHDGYCLHDGVCMYIEALDKYACNCVVGYIGERCQYRDLKWWELR
B5: FN648-667 (KNSVGRWKEATIPGHLNSYT) (peptide)
peptide: KNSVGRWKEATIPGHLNSYT
B6: FN641-654 (YILRWRPKNSVGRW) (peptide)
peptide: YILRWRPKNSVGRW
B7: vascular endothelial growth factor A (VEGF-A) (ligand, UniProt P15692-4 27-191, looked up)
chain: APMAEGGGQNHHEVVKFMDVYQRSYCHPIETLVDIFQEYPDEIEYIFKPSCVPLMRCGGCCNDEGLECVPTEESNITMQIMRIKPHQGQHIGEMSFLQHNKCECRPKKDRARQENPCGPCSERRKHLFVQDPQTCKCSCKNTDSRCKARQLELNERTCRCDKPRR
B8: peptide 4 (QPSVGQQMIFEEHGFRRTTPPTTAT) (peptide)
peptide: QPSVGQQMIFEEHGFRRTTPPTTAT
notes: Synthetic peptide
B9: peptide 3 (NGQTPIQRTIKPDVRSYTITGLQPGT) (peptide)
peptide: NGQTPIQRTIKPDVRSYTITGLQPGT
notes: Synthetic peptide
B10: FN630-648 (WNAPQPSHISKYILRWRPK) (peptide)
peptide: WNAPQPSHISKYILRWRPK
B11: platelet-derived growth factor-BB (PDGF-BB) (ligand, UniProt P01127 82-190, looked up)
chain: SLGSLTIAEPAMIAECKTRTEVFEISRRLIDRTNANFLVWPPCVEVQRCSGCCNNRNVQCRPTQVQLRPVQVRKIEIVRKKPIFKKATVTLEDHLACKCETVAAARPVT
notes: Two B chains by its name BB
B12: FN634-648 (QPSHISKYILRWRPK) (peptide)
peptide: QPSHISKYILRWRPK
B13: FN634-641 (QPSHISKY) (peptide)
peptide: QPSHISKY

Experiments:
[1] = biological target: transforming growth factor-β1 (TGF-β1) (UniProt P01137 279-390); test: equilibrium binding
Chain of transforming growth factor-β1 (TGF-β1) (P01137 279-390 limits assumed): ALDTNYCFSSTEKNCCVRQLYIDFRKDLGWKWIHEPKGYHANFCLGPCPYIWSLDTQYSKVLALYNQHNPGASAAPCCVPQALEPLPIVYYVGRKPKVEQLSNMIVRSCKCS

FGF-1 = FGF-1 (UniProt P05230 16-155, limits assumed); test: binding assay, method not restated
Chain of FGF-1 (P05230 16-155 limits assumed): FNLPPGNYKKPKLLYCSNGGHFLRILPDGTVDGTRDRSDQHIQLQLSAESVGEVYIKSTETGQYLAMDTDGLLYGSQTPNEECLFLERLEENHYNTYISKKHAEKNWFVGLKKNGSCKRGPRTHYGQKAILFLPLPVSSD

EGF = biological target: B4; test: binding assay, method not restated
TGF-α = TGF-α (UniProt P01135 40-89); test: binding assay, method not restated
Chain of TGF-α (P01135 40-89 limits assumed): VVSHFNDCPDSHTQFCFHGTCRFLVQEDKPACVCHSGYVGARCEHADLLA

[2] = biological target: B11; test: equilibrium binding
[3] = biological target: B11; test: binding assay, method not restated
[4] = biological target: T1, FNIII12-V15 (HV), composite heparinII-binding and variably-spliced IIICS domains of fibronectin (human, UniProt P02751 1812-2288); test: plasmon resonance
T1 construct: domain: FNIII12-V15; Recombinant domain made in E. coli; Some constructs carried GST at the C-terminus
T1 sequence (P02751 other isoform, or with tags, fused parts or gaps limits assumed): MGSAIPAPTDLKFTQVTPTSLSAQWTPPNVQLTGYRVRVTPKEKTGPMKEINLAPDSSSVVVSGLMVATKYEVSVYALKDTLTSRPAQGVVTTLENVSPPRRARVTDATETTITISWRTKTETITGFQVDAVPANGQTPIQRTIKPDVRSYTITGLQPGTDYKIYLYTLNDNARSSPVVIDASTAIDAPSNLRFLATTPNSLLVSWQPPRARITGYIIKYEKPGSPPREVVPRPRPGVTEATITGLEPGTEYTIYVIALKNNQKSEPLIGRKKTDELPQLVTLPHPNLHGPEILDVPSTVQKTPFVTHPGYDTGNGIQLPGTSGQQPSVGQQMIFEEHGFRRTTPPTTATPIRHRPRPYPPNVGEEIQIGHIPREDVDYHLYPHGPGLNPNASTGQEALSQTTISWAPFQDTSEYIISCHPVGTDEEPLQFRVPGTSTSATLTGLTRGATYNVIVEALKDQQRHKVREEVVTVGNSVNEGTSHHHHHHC

[5] = biological target: T2, FNIII12-15 (H), heparinII-binding domain of fibronectin (human, UniProt P02751-10 1631-1987); test: binding assay, method not restated
T2 construct: domain: FNIII12-15; Recombinant domain; also called HepII domain

FNIII1 = biological target: T3, FNIII1 (human, UniProt P02751 610-702, limits assumed); test: binding assay, method not restated
T3 construct: domain: FNIII1; Recombinant domain; also called first type III repeat of FN

FNIII3-6 [6] = biological target: T4, FNIII3-6 (human, UniProt P02751 810-1172, limits assumed); test: binding assay, method not restated
T4 construct: domain: FNIII3-6; Recombinant domain

FNIII12-14 [7] = biological target: T5, FNIII12-14 (human, UniProt P02751 1812-2082); test: binding assay, method not restated
T5 construct: domain: FNIII12-14; Recombinant domain
T5 sequence (P02751 other isoform, or with tags, fused parts or gaps limits assumed): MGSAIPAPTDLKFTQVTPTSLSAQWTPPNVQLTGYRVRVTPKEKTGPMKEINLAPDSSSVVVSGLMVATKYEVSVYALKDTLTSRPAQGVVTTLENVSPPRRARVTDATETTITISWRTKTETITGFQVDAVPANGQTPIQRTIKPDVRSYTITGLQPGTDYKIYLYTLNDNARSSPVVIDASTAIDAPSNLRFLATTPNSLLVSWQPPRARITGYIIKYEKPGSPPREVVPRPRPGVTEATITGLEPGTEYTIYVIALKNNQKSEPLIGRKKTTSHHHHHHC

[8] = biological target: T6, FNIII8-11 (C), central cell-binding domain of fibronectin containing RGD (human, UniProt P02751 1357-1721); test: binding assay, method not restated
T6 construct: domain: FNIII8-11; Recombinant domain
T6 sequence (P02751 other isoform, or with tags, fused parts or gaps limits assumed): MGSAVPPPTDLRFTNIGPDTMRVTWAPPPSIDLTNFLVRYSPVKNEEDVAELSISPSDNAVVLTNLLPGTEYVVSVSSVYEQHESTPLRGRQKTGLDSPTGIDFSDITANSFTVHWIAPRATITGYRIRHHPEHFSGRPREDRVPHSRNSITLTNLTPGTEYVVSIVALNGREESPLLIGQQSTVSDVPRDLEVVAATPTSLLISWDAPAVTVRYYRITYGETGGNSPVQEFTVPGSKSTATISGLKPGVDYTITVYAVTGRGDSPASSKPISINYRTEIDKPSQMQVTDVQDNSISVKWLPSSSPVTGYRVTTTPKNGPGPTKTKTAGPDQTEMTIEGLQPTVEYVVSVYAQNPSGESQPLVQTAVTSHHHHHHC

intact fibronectin [9] = biological target: T7, intact fibronectin (UniProt P02751-8 32-2296, limits assumed); test: equilibrium binding to FN adsorbed to a surface or coupled to agarose beads
T7 construct: also called FN; intact FN
T7 sequence (P02751 other isoform, or with tags, fused parts or gaps limits assumed): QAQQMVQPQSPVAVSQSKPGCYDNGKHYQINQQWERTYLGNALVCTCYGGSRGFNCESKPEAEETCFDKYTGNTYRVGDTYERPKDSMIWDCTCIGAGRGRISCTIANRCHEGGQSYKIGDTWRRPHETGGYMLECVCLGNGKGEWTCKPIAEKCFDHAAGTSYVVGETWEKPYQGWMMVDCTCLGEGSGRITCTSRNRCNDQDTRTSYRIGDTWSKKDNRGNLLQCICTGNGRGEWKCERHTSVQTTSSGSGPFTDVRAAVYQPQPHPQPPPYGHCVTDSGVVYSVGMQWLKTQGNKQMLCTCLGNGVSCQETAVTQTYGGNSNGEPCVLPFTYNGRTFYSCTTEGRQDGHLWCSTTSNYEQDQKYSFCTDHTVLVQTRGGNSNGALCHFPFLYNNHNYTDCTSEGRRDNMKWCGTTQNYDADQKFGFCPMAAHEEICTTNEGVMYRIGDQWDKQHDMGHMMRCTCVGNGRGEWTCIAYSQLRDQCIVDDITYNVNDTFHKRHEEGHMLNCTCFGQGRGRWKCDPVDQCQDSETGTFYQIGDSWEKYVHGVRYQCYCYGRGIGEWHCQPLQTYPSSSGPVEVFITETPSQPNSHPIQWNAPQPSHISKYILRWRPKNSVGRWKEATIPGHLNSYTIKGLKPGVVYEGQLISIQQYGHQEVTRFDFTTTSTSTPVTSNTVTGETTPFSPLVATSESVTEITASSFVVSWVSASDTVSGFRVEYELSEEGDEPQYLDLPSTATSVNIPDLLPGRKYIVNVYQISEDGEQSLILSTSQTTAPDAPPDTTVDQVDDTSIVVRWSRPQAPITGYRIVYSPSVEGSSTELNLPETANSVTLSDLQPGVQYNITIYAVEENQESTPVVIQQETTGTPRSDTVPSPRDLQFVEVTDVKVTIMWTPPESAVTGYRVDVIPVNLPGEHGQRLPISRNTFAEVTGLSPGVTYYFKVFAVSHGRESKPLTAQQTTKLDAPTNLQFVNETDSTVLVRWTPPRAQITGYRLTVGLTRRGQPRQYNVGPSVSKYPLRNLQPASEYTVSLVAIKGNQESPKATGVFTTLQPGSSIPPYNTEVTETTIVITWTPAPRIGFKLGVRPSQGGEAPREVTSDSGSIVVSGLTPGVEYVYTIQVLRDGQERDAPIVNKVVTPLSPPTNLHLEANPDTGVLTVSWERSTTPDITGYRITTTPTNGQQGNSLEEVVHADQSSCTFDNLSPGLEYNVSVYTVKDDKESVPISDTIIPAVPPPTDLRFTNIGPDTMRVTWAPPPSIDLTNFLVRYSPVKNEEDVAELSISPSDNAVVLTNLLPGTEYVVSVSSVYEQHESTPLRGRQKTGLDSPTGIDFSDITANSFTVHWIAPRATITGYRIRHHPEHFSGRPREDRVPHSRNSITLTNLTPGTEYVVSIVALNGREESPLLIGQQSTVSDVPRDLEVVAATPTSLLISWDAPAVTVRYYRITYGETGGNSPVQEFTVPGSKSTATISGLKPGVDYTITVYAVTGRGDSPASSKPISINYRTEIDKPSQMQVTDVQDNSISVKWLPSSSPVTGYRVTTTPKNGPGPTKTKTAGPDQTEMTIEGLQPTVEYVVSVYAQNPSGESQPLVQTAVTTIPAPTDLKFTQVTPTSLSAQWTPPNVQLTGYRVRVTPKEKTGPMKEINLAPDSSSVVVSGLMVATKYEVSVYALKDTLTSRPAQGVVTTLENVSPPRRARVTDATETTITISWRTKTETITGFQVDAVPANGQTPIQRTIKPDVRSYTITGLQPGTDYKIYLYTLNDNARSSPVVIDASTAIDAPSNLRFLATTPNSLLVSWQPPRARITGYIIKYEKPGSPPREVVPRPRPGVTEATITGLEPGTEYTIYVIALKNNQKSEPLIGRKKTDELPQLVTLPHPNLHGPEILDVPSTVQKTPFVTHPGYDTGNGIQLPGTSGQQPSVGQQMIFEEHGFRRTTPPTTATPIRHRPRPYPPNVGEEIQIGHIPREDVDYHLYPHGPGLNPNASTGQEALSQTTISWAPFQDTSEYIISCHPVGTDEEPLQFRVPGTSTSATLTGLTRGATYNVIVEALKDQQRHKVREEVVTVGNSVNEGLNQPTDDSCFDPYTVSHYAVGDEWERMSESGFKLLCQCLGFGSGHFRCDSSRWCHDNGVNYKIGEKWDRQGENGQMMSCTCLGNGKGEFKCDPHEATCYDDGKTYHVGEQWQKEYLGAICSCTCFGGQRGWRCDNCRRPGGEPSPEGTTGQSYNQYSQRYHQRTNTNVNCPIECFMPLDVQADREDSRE

FNIII1-7 [10] = biological target: T8, FNIII1-7 (UniProt P02751 610-1265, limits assumed); test: equilibrium and kinetic binding
T8 construct: domain: FNIII1-7
T8 sequence (P02751 610-1265 limits assumed): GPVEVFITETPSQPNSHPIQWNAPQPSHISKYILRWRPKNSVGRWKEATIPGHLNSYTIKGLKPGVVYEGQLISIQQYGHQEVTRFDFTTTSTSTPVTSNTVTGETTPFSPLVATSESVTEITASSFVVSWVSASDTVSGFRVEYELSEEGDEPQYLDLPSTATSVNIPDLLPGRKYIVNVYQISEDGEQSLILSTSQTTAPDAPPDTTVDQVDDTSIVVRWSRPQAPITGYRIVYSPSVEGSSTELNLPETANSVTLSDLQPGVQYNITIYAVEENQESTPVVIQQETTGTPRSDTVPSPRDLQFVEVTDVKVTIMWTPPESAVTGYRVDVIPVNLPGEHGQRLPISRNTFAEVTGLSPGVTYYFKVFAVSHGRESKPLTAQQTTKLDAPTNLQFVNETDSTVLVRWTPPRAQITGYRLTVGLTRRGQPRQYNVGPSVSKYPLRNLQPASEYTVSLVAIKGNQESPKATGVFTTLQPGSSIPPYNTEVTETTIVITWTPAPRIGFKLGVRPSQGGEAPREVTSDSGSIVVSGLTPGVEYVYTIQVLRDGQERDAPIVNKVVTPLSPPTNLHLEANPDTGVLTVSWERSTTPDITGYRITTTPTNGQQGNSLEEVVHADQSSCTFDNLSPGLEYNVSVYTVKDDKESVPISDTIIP

[11] = biological target: T9, 70 kDa amino terminus of FN (FN70) (UniProt P02751 32-608, limits assumed); test: equilibrium and kinetic binding
T9 construct: domain: 70 kDa amino terminus of FN (FN70); also called amino-terminal end of FN
T9 sequence (P02751 32-608 limits assumed): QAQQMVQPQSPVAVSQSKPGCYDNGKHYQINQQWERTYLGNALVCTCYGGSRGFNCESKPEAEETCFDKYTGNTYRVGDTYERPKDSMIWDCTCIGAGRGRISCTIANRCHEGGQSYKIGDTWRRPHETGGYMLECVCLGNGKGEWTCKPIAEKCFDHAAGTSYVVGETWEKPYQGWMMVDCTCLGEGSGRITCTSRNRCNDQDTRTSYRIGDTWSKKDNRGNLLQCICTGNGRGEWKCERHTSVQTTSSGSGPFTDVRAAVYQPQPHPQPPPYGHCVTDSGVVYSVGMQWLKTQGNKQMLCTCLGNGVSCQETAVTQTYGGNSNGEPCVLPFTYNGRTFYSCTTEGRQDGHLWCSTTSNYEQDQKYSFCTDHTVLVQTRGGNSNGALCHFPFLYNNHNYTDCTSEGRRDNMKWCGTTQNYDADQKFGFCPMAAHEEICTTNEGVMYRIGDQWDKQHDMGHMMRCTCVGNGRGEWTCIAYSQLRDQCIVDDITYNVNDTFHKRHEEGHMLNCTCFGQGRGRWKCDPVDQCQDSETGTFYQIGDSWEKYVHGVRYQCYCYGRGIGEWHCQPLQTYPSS

[12] = biological target: B11; test: peptide binding assay
[13] = biological target: T9, 70 kDa amino terminus of FN (FN70); test: binding assay, method not restated
FNIII1-11 = biological target: T10, FNIII1-11 (human, UniProt P02751-1 610-1630); test: binding assay, method not restated
T10 construct: domain: FNIII1-11; Recombinant domain

intact fibronectin [14] = biological target: T7, intact fibronectin; test: radiolabeled GF binding to intact FN, non linear regression
[15] = biological target: T9, 70 kDa amino terminus of FN (FN70); test: equilibrium binding, confirmed by surface plasmon resonance
[16] = biological target: T2, FNIII12-15 (H), heparinII-binding …; test: equilibrium binding
FNIII3-6 [17] = biological target: T4, FNIII3-6; test: equilibrium binding
FNIII12-13 = biological target: T11, FNIII12-13 (UniProt P02751 1812-1992); test: equilibrium binding
T11 construct: domain: FNIII12-13

FNIII1-7 [18] = biological target: T8, FNIII1-7; test: equilibrium binding
FNIII12-14 [19] = biological target: T5, FNIII12-14; test: equilibrium binding
FNIII1-2 [20] = biological target: T12, FNIII1-2 (human, UniProt P02751 610-809, limits assumed); test: equilibrium binding
T12 construct: domain: FNIII1-2; Recombinant domain

[21] = biological target: T1, FNIII12-V15 (HV), composite …; test: equilibrium binding
FNIII12-14 [22] = biological target: T5, FNIII12-14; test: binding assay, method not restated (plasmon resonance in the sentence before)
FNIII1-2 [23] = biological target: T12, FNIII1-2; test: surface plasmon resonance
FNIII1-7 [24] = biological target: T8, FNIII1-7; test: plasmon surface resonance, kinetic binding
[25] = biological target: T1, FNIII12-V15 (HV), composite …; test: plasmon surface resonance, kinetic binding

**Q.** For B1, which Kd [1] is on record?
**A.** The Kd was 400 nM.

**Q.** Does B2 bind (FGF-1)?
**A.** Result: no binding

**Q.** Does B2 bind (EGF)?
**A.** Result: no binding

**Q.** Does B2 bind (TGF-α)?
**A.** Result: no binding

**Q.** What about the Kd [2] of the same binder?
**A.** Its Kd is 250 nM.

**Q.** And the Kd [1]?
**A.** Its Kd is 130 nM.

**Q.** Does B3 bind (FGF-1)?
**A.** Result: no binding

**Q.** What about the Kd [3] of the same binder?
**A.** Its Kd is 110 nM.

**Q.** Does B3 bind (EGF)?
**A.** Result: no binding

**Q.** Does B3 bind (TGF-α)?
**A.** Result: no binding

**Q.** What about the Kd [1] of the same binder?
**A.** The Kd was 270 nM.

**Q.** Does B4 bind [4]?
**A.** Result: no binding

**Q.** Does B4 bind [5]?
**A.** Result: no binding

**Q.** Does B4 bind (FNIII1)?
**A.** Result: no binding

**Q.** Does B4 bind (FNIII3-6 [6])?
**A.** Result: no binding

**Q.** Does B4 bind (FNIII12-14 [7])?
**A.** Result: no binding

**Q.** Does B4 bind [8]?
**A.** Result: no binding

**Q.** Does B4 bind (intact fibronectin [9])?
**A.** Result: no binding

**Q.** Does B4 bind (FNIII1-7 [10])?
**A.** Result: no binding

**Q.** Does B4 bind [11]?
**A.** Result: no binding

**Q.** Does B5 bind [12]?
**A.** Result: no binding

**Q.** Does B6 bind [12]?
**A.** Result: no binding

**Q.** For B7, which Kd [4] is on record?
**A.** Its Kd is 0.6 nM.

**Q.** Does B7 bind [13]?
**A.** Result: no binding

**Q.** Does B7 bind (FNIII1-11)?
**A.** Result: no binding

**Q.** Does B7 bind [8]?
**A.** Result: no binding

**Q.** Which results are given for B8?
**A.** binding result (FGF-1): no binding; binding result (EGF): no binding; binding result (TGF-α): no binding; Kd [1]: 100 nM

**Q.** Does B9 bind (FGF-1)?
**A.** Result: no binding

**Q.** Does B9 bind (EGF)?
**A.** Result: no binding

**Q.** Does B9 bind (TGF-α)?
**A.** Result: no binding

**Q.** What about the Kd [1] of the same binder?
**A.** The Kd was 140 nM.

**Q.** B10 was tested. Which Kd [12] did it give?
**A.** Its Kd is 340 nM.

**Q.** For B11, which Kd (intact fibronectin [14]) is on record?
**A.** Its Kd is 49 nM.

**Q.** Does B11 bind [15]?
**A.** Result: no binding

**Q.** Does B11 bind [8]?
**A.** Result: no binding

**Q.** What about the Kd [16] of the same binder?
**A.** Its Kd is 6.8 nM.

**Q.** Does B11 bind (FNIII3-6 [17])?
**A.** Result: no binding

**Q.** And the Kd (FNIII12-13)?
**A.** The Kd was 75 nM.

**Q.** And the Kd (FNIII1-7 [18])?
**A.** Its Kd is 75 nM.

**Q.** What about the Kd (FNIII12-14 [19]) of the same binder?
**A.** The Kd was 35 nM.

**Q.** What about the Kd (FNIII1-2 [20]) of the same binder?
**A.** The Kd was 37 nM.

**Q.** And the Kd [21]?
**A.** The Kd was 21 nM.

**Q.** And the Kd (FNIII12-14 [22])?
**A.** The Kd was 55 nM.

**Q.** What about the Kd (FNIII1-2 [23]) of the same binder?
**A.** The Kd was 9.1 nM.

**Q.** What about the Kd (FNIII1-7 [24]) of the same binder?
**A.** Its Kd is 100 nM.

**Q.** And the Kd [25]?
**A.** The Kd was 17 nM.

**Q.** Which Kd [1] does the source give for B12 here?
**A.** Its Kd is 440 nM.

**Q.** And the Kd [12]?
**A.** Its Kd is 450 nM.

**Q.** Does B13 bind [12]?
**A.** Result: no binding
